Laboratory results reported in the supplement of paper PMC9112550, “Optimization of the antimicrobial peptide Bac7 by deep mutational scanning” (BMC Biology, 2022).

system: Escherichia coli TOP10; assay: shrunken log2 fold change of peptide-encoding DNA abundance (4.5 h post-induction vs induction); higher = less antimicrobial activity (less host growth inhibition); conditions: time post-induction: 4.5 h; library: site-saturation at positions 5, 18, 19, 20
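Also: peptides expressed intracellularly from a pBAD plasmid library in pooled LB shake-flask culture, induced with 0.3% L-arabinose, DNA abundance read by NGS, three biological replicates, DESeq2 with apeglm shrinkage.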

| Sequence | shrunken log2 fold change |
| --- | --- |
| RRIRLRPPRLPRPRPRPEIDPRP | -0.0103 |
| RRIRWRPPRLPRPRPRPYPNPRP | -0.58 |
| RRIRARPPRLPRPRPRPKRTPRP | 0.553 |
| RRIRGRPPRLPRPRPRPWMIPRP | 0.268 |
| RRIRMRPPRLPRPRPRPQWDPRP | 0.232 |
| RRIRERPPRLPRPRPRPHSNPRP | -0.255 |
| RRIRWRPPRLPRPRPRPFDQPRP | -0.102 |
| RRIRQRPPRLPRPRPRPWACPRP | -0.0783 |
| RRIRFRPPRLPRPRPRPSHIPRP | -0.216 |
| RRIRQRPPRLPRPRPRPGWVPRP | -0.124 |
| RRIRSRPPRLPRPRPRPERDPRP | 0.138 |
| RRIRQRPPRLPRPRPRPTPMPRP | 2.6 |
| RRIRTRPPRLPRPRPRPVIFPRP | -0.335 |
| RRIRIRPPRLPRPRPRPFYIPRP | -0.308 |
| RRIRERPPRLPRPRPRPCIGPRP | -0.479 |
| RRIRSRPPRLPRPRPRPAAFPRP | 0.29 |
| RRIRGRPPRLPRPRPRPTVKPRP | 0.642 |
| RRIRIRPPRLPRPRPRPSCYPRP | -0.392 |
| RRIRYRPPRLPRPRPRPCRQPRP | -0.442 |
| RRIRRRPPRLPRPRPRPVAWPRP | 0.341 |

| Sequence | shrunken log2 fold change |
| --- | --- |
| RRIRRRPPRLPRPRPRPVAKPRP | 0.386 |
| RRIRNRPPRLPRPRPRPTAYPRP | -0.184 |
| RRIRVRPPRLPRPRPRPANSPRP | -0.117 |
| RRIRERPPRLPRPRPRPAFNPRP | 0.495 |
| RRIRERPPRLPRPRPRPRNAPRP | 0.105 |
| RRIRLRPPRLPRPRPRPWQFPRP | -0.196 |
| RRIRRRPPRLPRPRPRPNTGPRP | -0.121 |
| RRIRQRPPRLPRPRPRPTMHPRP | -0.0393 |
| RRIRNRPPRLPRPRPRPIVQPRP | -0.236 |
| RRIRYRPPRLPRPRPRPYATPRP | -0.175 |
| RRIRPRPPRLPRPRPRPMRCPRP | 0.221 |
| RRIRFRPPRLPRPRPRPEVTPRP | -0.0331 |
| RRIRSRPPRLPRPRPRPMRCPRP | 0.361 |
| RRIRNRPPRLPRPRPRPRCVPRP | -0.0119 |
| RRIRARPPRLPRPRPRPKEVPRP | -0.0076 |
| RRIRIRPPRLPRPRPRPPLFPRP | 0.0406 |
| RRIRYRPPRLPRPRPRPVMIPRP | -0.596 |
| RRIRQRPPRLPRPRPRPRAFPRP | 0.317 |
| RRIRTRPPRLPRPRPRPGQIPRP | 0.0034 |
| RRIRCRPPRLPRPRPRPYCQPRP | -0.219 |

| Sequence | shrunken log2 fold change |
| --- | --- |
| RRIRYRPPRLPRPRPRPMSNPRP | -0.709 |
| RRIRIRPPRLPRPRPRPMDEPRP | 0.00773 |
| RRIRVRPPRLPRPRPRPQYCPRP | -0.095 |
| RRIRQRPPRLPRPRPRPMAPPRP | 0.0505 |
| RRIRIRPPRLPRPRPRPGWVPRP | 0.28 |
| RRIRIRPPRLPRPRPRPRYLPRP | 0.0743 |
| RRIRARPPRLPRPRPRPAHEPRP | 0.128 |
| RRIRFRPPRLPRPRPRPYDYPRP | -0.107 |
| RRIRKRPPRLPRPRPRPSGMPRP | 0.115 |
| RRIRHRPPRLPRPRPRPASEPRP | -0.131 |
| RRIRCRPPRLPRPRPRPEERPRP | -0.0298 |
| RRIRSRPPRLPRPRPRPQWHPRP | -0.26 |
| RRIRKRPPRLPRPRPRPINFPRP | -0.962 |
| RRIRARPPRLPRPRPRPDGMPRP | -0.141 |
| RRIRPRPPRLPRPRPRPENRPRP | 0.0972 |
| RRIRIRPPRLPRPRPRPTEYPRP | -0.251 |
| RRIRHRPPRLPRPRPRPTNTPRP | -0.384 |
| RRIRDRPPRLPRPRPRPNKEPRP | 0.0313 |
| RRIRDRPPRLPRPRPRPFHKPRP | -0.0864 |
| RRIRCRPPRLPRPRPRPCCGPRP | -0.0934 |
